The text below walks through data of publication PMC10528418 (Molecular cell, 2023).

Holding throughout (experiment): cryo-EM structure
For one experiment, the target named is T1, TFIIIC subunit τ138 (S. cerevisiae, UniProt P34111 1-1160).
T1 sequence (looked up): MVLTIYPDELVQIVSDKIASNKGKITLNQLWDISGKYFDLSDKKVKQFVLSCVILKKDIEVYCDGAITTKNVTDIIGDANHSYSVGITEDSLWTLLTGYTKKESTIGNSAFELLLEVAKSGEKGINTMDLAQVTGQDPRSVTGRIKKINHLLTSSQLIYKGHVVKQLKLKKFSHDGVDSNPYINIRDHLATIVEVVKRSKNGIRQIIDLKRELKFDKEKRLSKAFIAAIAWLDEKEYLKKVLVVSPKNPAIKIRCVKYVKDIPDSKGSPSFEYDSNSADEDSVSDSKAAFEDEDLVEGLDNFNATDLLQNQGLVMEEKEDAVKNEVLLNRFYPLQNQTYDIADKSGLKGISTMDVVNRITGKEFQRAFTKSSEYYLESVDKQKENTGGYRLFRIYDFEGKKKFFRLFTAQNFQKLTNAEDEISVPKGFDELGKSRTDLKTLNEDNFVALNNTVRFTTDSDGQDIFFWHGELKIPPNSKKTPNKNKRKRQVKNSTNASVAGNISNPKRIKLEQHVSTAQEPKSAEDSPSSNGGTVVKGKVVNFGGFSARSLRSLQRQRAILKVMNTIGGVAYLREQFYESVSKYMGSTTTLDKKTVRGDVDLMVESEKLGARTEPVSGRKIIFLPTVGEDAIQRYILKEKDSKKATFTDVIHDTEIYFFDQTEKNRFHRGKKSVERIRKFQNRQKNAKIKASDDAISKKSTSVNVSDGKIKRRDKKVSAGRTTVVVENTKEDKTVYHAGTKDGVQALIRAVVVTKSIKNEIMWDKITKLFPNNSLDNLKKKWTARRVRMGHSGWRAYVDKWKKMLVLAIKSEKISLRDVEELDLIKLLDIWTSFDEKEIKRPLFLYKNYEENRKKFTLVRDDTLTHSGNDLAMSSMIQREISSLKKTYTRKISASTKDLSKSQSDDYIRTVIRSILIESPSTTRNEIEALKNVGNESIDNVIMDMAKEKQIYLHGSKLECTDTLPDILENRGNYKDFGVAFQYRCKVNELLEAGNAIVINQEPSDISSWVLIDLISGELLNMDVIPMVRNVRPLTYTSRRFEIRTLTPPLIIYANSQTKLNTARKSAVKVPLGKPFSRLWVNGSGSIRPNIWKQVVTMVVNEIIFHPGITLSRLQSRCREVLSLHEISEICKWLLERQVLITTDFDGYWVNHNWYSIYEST

A further experiment has as its target T2, TFIIIC subunit τ95 (S. cerevisiae, UniProt P32367 1-649).
T2 sequence (looked up): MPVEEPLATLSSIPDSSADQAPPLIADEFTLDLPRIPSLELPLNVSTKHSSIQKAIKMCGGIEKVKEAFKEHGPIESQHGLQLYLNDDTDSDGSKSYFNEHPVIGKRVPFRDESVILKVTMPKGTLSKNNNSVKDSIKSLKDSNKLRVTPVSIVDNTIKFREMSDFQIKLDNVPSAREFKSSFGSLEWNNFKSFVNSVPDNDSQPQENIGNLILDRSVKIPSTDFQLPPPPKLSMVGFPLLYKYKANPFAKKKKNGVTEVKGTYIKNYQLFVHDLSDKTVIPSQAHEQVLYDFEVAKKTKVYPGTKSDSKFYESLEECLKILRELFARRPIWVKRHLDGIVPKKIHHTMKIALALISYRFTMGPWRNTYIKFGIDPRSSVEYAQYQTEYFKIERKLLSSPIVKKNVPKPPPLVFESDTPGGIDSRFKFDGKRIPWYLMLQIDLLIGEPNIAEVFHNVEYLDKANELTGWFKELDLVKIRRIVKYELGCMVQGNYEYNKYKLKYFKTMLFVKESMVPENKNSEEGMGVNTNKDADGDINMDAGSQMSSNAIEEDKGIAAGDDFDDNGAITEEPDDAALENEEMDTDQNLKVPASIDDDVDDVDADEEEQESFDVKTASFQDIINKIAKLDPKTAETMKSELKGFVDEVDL

Another experiment has as its target T3, TFIIIC subunit τ91 (S. cerevisiae, UniProt Q06339 1-672).
T3 sequence (looked up): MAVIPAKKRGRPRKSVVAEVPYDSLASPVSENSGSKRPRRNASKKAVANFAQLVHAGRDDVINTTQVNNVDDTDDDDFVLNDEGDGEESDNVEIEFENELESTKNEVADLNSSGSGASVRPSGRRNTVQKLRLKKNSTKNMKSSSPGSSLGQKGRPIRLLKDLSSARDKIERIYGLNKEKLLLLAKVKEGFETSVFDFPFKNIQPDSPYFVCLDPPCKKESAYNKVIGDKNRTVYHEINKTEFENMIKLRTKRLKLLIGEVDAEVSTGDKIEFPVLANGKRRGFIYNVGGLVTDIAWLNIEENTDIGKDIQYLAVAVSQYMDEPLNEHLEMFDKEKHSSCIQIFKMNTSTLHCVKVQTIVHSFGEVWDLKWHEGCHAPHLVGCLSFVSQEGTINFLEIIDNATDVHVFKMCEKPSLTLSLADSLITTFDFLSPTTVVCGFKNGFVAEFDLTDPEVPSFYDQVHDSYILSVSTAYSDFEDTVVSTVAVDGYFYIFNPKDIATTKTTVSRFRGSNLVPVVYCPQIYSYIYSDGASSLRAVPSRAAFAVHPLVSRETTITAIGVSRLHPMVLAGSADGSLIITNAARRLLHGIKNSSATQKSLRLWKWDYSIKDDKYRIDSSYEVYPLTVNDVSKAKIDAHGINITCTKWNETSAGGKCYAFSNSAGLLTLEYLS

B1: TFIIIC subunit τ55 (natural protein, S. cerevisiae, UniProt Q12415 1-435, looked up)
chain: MVVNTIYIARHGYRSNWLPEGPYPDPLTGIDSDVPLAEHGVQQAKELAHYLLSLDNQPEAAFASPFYRCLETVQPIAKLLEIPVYLERGIGEWYRPDRKPVIPVPAGYEILSKFFPGVISQEWDSTLTPNEKGETEQEMYMRFKKFWPLFIERVEKEYPNVECILLVTHAASKIALGMSLLGYDNPRMSLNENGDKIRSGSCSLDKYEILKKSYDTIDETDDQTSFTYIPFSDRKWVLTMNGNTEFLSSGEEMNWNFDCVAEAGSDADIKKRQMTKKTSSPIPEADDQTEVETVYISVDIPSGNYKERTEIAKSAILQYSGLETDAPLFRIGNRLYEGSWERLVGTELAFPNAAHVHKKTAGLLSPTEENETTNAGQSKGSSTANDPNIQIQEEDVGLPDSTNTSRDHTGDKEEVQSEKIYRIKERIVLSNVRPM
Take B1: the binding result with TFIIIC subunit τ138 and with TFIIIC subunit τ95 was “binds” each time.

B2: TFIIIC subunit τ60 (natural protein, S. cerevisiae)
chain: MKLLKDLLVDRKEFEDWKNNLTWARDGTLYLTTFPDISIGQPKYAKDINCNSKNLFHVKEFPLEFENKLDFELAQQNGLLNSQPVCYPRVCKPSPIDDWMAVLSNNGNVSVFKDNKMLTNLDSKGNLSSRTYHCFEWNPIESSIVVGNEDGELQFFSIRKNSENTPEFYFESSIRLSDAGSKDWVTHIVWYEDVLVAALSNNSVFSMTVSASSHQPVSRMIQNASRRKITDLKIVDYKVVLTCPGYVHKIDLKNYSISSLKTGSLENFHIIPLNHEKESTILLMSNKTSYKVLLEDELHVTADNIIAPYLEKKFKKWSTIWNEFNNYETTLVIHGISLSPDGYSIAIVYDMERVAFKYKIASEQSFNIMFAPLYHTWTISERAVGLAWYQTYQIYNQSLPKLPENFSMNKKLLNGNYPISLDFQSYLNALMKSEEMRIIMFLNMTIDKPSILSFLEALYEYAINKKSELTNSFDLACVLSIAAILKREAPIYNGTLLMKNSFLEETFNLESFTADPETVTSTTNNTWKRCGVTLLPILTTHVKICPVSKQRVIDIKRDDLNDYGWFTRGLLERFNEISVYCGTTLEVM
Turning to B2, the binding result in the experiment with TFIIIC subunit τ138 and with TFIIIC subunit τ91 was “binds” throughout.
